Measured values as given in paper PMC7101349 (2020).
Like-named read-outs stand apart in the source and are kept apart here.

Columns and labels:
Assay in all cases: SPR
His10-BRIL [1] = molecular target: T1, His10-BRIL (UniProt P0ABE7 30-123)
His10-BRIL [2] = molecular target: T1, His10-BRIL; remark: listed apart in the source
His10-BRIL [3] = molecular target: T1, His10-BRIL; remark: listed apart in the source
His10-BRIL [4] = molecular target: T1, His10-BRIL; remark: listed apart in the source

| Binder | Kd (His10-BRIL [1]) | koff (His10-BRIL [2]) | further results |
| --- | --- | --- | --- |
| sAB BAK5 (Fab, V domains shown) VH: EVQLVESGGGLVQPGGSLRLSCAASGFNVRSFSIHWVRQAPGKGLEWVAYISSSSGSTSYADSVKGRFTISADTSKNTAYLQMNSLRAEDTAVYYCARWGYWPGEPWWKAFDYWGQGTLVTVSS VL: DIQMTQSPSSLSASVGDRVTITCRASQSVSSAVAWYQQKPGKAPKLLIYSASSLYSGVPSRFSGSRSGTDFTLTISSLQPEDFATYYCQQYLYYSLVTFGQGTKVEIK | 0.175 nM |  |  |
| BAG2 S36A (Fab, V domains shown) VH: EVQLVESGGGLVQPGGSLRLSCAASGFNVVDFALHWVRQAPGKGLEWVAYISSSSGSTSYADSVKGRFTISADTSKNTAYLQMNSLRAEDTAVYYCARWGYWPGEPWWKAFDYWGQGTLVTVSS VL: DIQMTQSPSSLSASVGDRVTITCRASQSVSSAVAWYQQKPGKAPKLLIYSASSLYSGVPSRFSGSRSGTDFTLTISSLQPEDFATYYCQQYLYYSLVTFGQGTKVEIK |  | 0.00037 s⁻¹ |  |
| sAB BAG2 (Fab, V domains shown) VH: EVQLVESGGGLVQPGGSLRLSCAASGFNVVDFSLHWVRQAPGKGLEWVAYISSSSGSTSYADSVKGRFTISADTSKNTAYLQMNSLRAEDTAVYYCARWGYWPGEPWWKAFDYWGQGTLVTVSS VL: DIQMTQSPSSLSASVGDRVTITCRASQSVSSAVAWYQQKPGKAPKLLIYSASSLYSGVPSRFSGSRSGTDFTLTISSLQPEDFATYYCQQYLYYSLVTFGQGTKVEIK | 0.269 nM |  | koff (His10-BRIL [3]): 0.00013 s⁻¹ |
| BAG2 F35A (Fab, V domains shown) VH: EVQLVESGGGLVQPGGSLRLSCAASGFNVVDASLHWVRQAPGKGLEWVAYISSSSGSTSYADSVKGRFTISADTSKNTAYLQMNSLRAEDTAVYYCARWGYWPGEPWWKAFDYWGQGTLVTVSS VL: DIQMTQSPSSLSASVGDRVTITCRASQSVSSAVAWYQQKPGKAPKLLIYSASSLYSGVPSRFSGSRSGTDFTLTISSLQPEDFATYYCQQYLYYSLVTFGQGTKVEIK |  | 0.00028 s⁻¹ |  |
| sAB24 (Fab, V domains shown) VH: EVQLVESGGGLVQPGGSLRLSCAASGFNFSSSSIHWVRQAPGKGLEWVAYISSSSGSTSYADSVKGRFTISADTSKNTAYLQMNSLRAEDTAVYYCARWGYWPGEPWWKAFDYWGQGTLVTVSS VL: DIQMTQSPSSLSASVGDRVTITCRASQSVSSAVAWYQQKPGKAPKLLIYSASSLYSGVPSRFSGSRSGTDFTLTISSLQPEDFATYYCQQYLYYSLVTFGQGTKVEIK |  |  | koff (His10-BRIL [4]): 0.0008 s⁻¹ |
